Consider three molecules from US20220154221, “SITE SPECIFIC RECOMBINASE INTEGRASE VARIANTS AND USES THEREOF IN GENE EDITING IN EUKARYOTIC CELLS” (RAMOT AT TEL-AVIV UNIVERSITY LTD., published 2022).

Series [1] addresses T1, HK022 Int E174K (Bacteriophage HK022, UniProt P16407 SEQ:1-357, E174K).
T1 sequence: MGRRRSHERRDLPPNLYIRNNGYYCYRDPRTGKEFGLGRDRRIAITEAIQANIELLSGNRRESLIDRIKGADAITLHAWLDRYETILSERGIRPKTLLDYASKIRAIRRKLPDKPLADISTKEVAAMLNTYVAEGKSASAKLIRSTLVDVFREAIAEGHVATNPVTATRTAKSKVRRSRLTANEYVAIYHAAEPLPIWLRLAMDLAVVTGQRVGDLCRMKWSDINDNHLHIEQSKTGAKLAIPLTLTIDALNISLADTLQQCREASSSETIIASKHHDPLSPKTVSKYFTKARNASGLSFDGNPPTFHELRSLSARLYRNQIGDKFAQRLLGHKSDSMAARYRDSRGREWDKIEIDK
The series can be described thus: cell_activity; trans attB x attP, HEK293T (Example 8 quotes 147%). The following applies: chain copies: 4. The protocol:
(§1) To examine the activity of these Int variants, an analytic assay was performed of a transient trans integrative recombination reaction using the wild type attB and attP sites in human HEK293T cells in which each att site is located on a different substrate plasmid (FIG. 2B). The first substrate (pMK221) carries the attP site downstream to the cytomegalovirus promoter (CMV). The second plasmid (pMK223) carries the attB downstream to the open reading frame (ORF) of the green fluorescent protein (GFP) and upstream to a transcription terminator (Stop).
(§2) A productive attB×attP reaction forms a dimer plasmid encoding CMV-promoted GFP expression (FIG. 2B). HEK293T cells were co-transfected with these two substrate plasmids, with or without an Int-expressing plasmid (the oInt pNA979, or one of its Int mutant derivatives). 48 hours post-transfection GFP expressing cells were analyzed by fluorescence-activated cell sorting (FACS).

Series [2] concerns the target T2, HK022 integrase (oInt / wild type) (Bacteriophage HK022, UniProt P16407 SEQ:1-357).
T2 sequence: T1 sequence with K174E
The series can be described thus: cell_activity; trans attB x attP integration, HEK293T, reference. The following applies: tags: human codon-optimised (oInt) in human cells; native gene in E. coli; chain copies: 4. The protocol:
as §1, §2

The target in series [3] is T3, HK022 Int D278K (Bacteriophage HK022, UniProt P16407 SEQ:1-357, D278K).
T3 sequence: T1 sequence with K174E, D278K
The series can be described thus: cell_activity; trans attB x attP, HEK293T. The conditions noted are these: chain copies: 4. The protocol: as §1, §2

Series [4] addresses T4, HK022 Int E174K+I43F+R319G (Bacteriophage HK022, UniProt P16407 SEQ:1-357, I43F,E174K,R319G).
T4 sequence: T1 sequence with I43F, R319G
The series can be described thus: cell_activity; trans attB x attP, HEK293T. The conditions noted are these: chain copies: 4. The protocol:
as §1, §2

The target in series [5] is T5, HK022 Int E174K+D278K (Bacteriophage HK022, UniProt P16407 SEQ:1-357, E174K,D278K).
T5 sequence: T1 sequence with D278K
The series can be described thus: cell_activity; genomic RMCE at DMD2/DMD3, HEK293. The conditions noted are these: chain copies: 4. The protocol: (§3) Plasmid transformations were performed by electroporation (Sambrook, J., et al (1989) Cold Spring Harbor, N.Y.). Plasmids and oligomers are listed in Tables 1,3,5 and 2,4,6 respectively. Human embryonic kidney cells HEK293, 293T, and 293 Flp-In were cultured in Dulbecco's modified Eagle's medium (DMEM). For transient transfection 293T cells (˜6×10⁵) were plated in a 6 well plate and 24 h later treated with 3 μg of the proper plasmid DNA using PureFection Transfection Reagent (System Biosciences, Mountain View, Calif., USA). For the model chromosomal assay transfection, 293 Flp-In cells (˜6×10⁵) were plated in a 6 well plate and 24 h later treated with 5.5 μg of the proper plasmid DNA using Mirus Transfection Reagent (Mirus, Wis., USA). For the CTNS and DMD chromosomal assay transfection, HEK293 cells (˜6×10⁵) were plated in a 6 well plate and 24 h later treated with 3 μg of the proper plasmid DNA using PureFection Transfection Reagent.
(§4) In the DMD model, DMD2 and DMD3 “attB” sites were chosen which are 23 Kb apart located in introns 43 and 44 respectively that flank exon 44 (FIG. 12B). The relevant deletion mutation located in exon 44 is described (GM23715, Coriell institute). A GFP promoter trap whose incoming plasmid carried a splicing acceptor (SA), a ribosomal skipping site (2A) and the ORF of EGFP with a polyA sequence (FIG. 12A) was used. All are flanked with the two relevant “attP”s 1.4 Kb apart. […] The correct sequence of all PCR products was confirmed by NGS.

Series [6] deals with T4, HK022 Int E174K+I43F+R319G. The series can be described thus: cell_activity; genomic RMCE at DMD2/DMD3, HEK293. The conditions noted are these: chain copies: 4. As for the experimental part: as §3, §4

Residue numbers refer to the chain shown, from its start.

B1: wild-type attB (dsDNA)
DNA 1: GCACTTTAGGTGAAAAAGGTT
DNA 2: AACCTTTTTCACCTAAAGTGC
For B1, the “recombination activity (GFP+ cells, relative to oInt)” value in series [1] is 1.54 fold of oInt. Also, in series [2], the integrative recombination activity was 1 fold of oInt. Further, the integration activity in series [3] is 1.48 fold of oInt; in series [4], 2.3 fold of oInt.

B2: DMD3 attB (dsDNA)
DNA 1: GTGCTTTAAAAAGAAAAGGGG
DNA 2: CCCCTTTTCTTTTTAAAGCAC
Turning to B2, the activity in series [5] and in series [6] was 0.4 % cells in each case.

B3: DMD2 attB (dsDNA)
DNA 1: TTGCTTAATGGAGAAAAGGTA
DNA 2: TACCTTTTCTCCATTAAGCAA
Take B3: the activity in series [5] and in series [6] was 0.4 % cells in each case.
